From patent publication US20210380688A1 (SHENZHEN UNIVERSITY, published 2021)

Target: ROR2 mutant with the deletion of the d-Kringle region, flag-tagged (B4) (human, UniProt Q01974 34-943, limits assumed)
Assay: western blot of lysate of transfected 293T cells
Source text: In order to find the epitope bound by the B16 chimeric antibody, flag-tagged mutant plasmids (B1-B8) from different regions of the ROR2 protein were constructed (The Flag tag is a polypeptide fragment composed of eight hydrophilic amino acids […], which can be fused with proteins without occupying protein epitopes or structural domains, avoiding affecting the function, secretion, and transport properties of the protein. The flag tag is used to mark the target protein, if the tag is expressed, the target protein will also be expressed). The plasmid used is pcDNA3.0 plasmid. The full-length sequence of human-derived ROR2 protein includes SP region, Ig-like region, CRD region, Kringle region, Kinase region, S/T1 region, Pro region and S/T2 region. Each part and the corresponding function can refer to Debebe Z, Rathmell W K. Ror2 as a Therapeutic Target in Cancer [J]. Pharmacology & Therapeutics, 2015, 150:143-148. […]
After 48 hours of expression, the cells transfected with mutant plasmids in different regions of ROR2 were lysed. By western blot, the expression of ROR2 protein was detected with B16 chimeric antibody, Flag antibody and Santa Cruz's ROR2 antibody (Cat. No.: sc-374174).

Sequence of ROR2 mutant with the deletion of the d-Kringle region, flag-tagged (B4) (Q01974 other isoform, or with tags, fused parts or gaps mutant limits assumed): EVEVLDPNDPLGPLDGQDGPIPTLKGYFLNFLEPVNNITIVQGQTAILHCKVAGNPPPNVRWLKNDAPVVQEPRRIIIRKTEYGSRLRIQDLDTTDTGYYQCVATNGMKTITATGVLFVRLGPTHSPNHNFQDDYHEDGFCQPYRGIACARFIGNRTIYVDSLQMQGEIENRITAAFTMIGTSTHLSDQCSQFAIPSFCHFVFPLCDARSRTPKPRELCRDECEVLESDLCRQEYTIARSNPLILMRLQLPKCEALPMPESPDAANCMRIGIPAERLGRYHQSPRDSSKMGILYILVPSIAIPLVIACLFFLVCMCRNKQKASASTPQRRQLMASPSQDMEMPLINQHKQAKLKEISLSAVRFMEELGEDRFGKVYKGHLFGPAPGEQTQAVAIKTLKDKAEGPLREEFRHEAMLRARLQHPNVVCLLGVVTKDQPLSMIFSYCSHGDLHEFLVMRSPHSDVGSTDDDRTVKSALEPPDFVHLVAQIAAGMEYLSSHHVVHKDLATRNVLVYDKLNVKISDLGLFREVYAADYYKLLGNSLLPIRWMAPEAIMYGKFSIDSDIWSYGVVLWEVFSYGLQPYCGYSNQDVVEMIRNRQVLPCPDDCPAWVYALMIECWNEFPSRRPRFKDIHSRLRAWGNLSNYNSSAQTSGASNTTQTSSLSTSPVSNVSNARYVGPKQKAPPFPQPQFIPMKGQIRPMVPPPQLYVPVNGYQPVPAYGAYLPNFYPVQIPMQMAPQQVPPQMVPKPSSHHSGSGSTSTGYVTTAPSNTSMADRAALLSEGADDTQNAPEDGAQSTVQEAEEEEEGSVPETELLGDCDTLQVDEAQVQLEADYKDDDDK

- binding result: no binding
B1: B16 chimeric antibody (antibody, human IgG1, kappa, V domains shown)
VH: QLQLQQSGPELVKPGASVRMSCKAAGYTFTSYLMHWVKQRPGQDLEWIGYINPYNDGTKYNEKFKDKATLTSDKSSSTVYMELSSLTSEDSAVYYCARSDVYYGVRFAYWGQGTLVTVSA
VL: DIVLTQSPAIMSASPGEKVTMTCSASSSVTYTYWYQQKPGSSPRLLIYDTSNLASGVPVRFSGSGSGTSYSLTISRMEAEDAATYYCQQWSSYPFTFGSGTKLEIKR
notes: also called anti-ROR2 monoclonal antibody B16 chimeric antibody; B16 antibody
